Measured values from US8138148B2, “GDNF derived peptides” (Copenhagen University, priority 2005, dated 2012).

What was measured:
Type in all cases: cell-based, rat
[1] = tested on: primary hippocampal neurons; test: Neurite outgrowth assay, monocultures of primary hippocampal neurons; settings: monoculture, stimulated 24 hours; GDNF 1-100 ng/ml, peptides 0.1-27 μg/ml; versus medium alone
Description: (§1) Two different versions of the neurite outgrowth assay were used in this study, monocultures and co-cultures.
(§2) In monocultures, neurons are grown directly on plastic and the only neuritogenic stimulus is the one presented by the added substance. In co-cultures, neurons are grown on top of a confluent monolayer of fibroblasts expressing NCAM-140 (LBN110) or NCAM-negative control fibroblasts (LVN212). NCAM on the neurons interact with NCAM on LBN110 cells thereby stimulating neurite outgrowth from the neurons. This system thus permits the study of NCAM-NCAM interactions and interactions between NCAM and other molecules.
(§3) For all experiments cells were grown in neurobasal medium with supplements as described above in a final volume of 300 μl/well in 8-well LabTek® Permanox Chamber slides or 500 μl/well in 4-well LabTek® Permanox Chamber slides.
For monocultures, primary hippocampal neurons were seeded in 8-well LabTek® Permanox Chamber slides at a density of 10,000 cells/well.
(§4) To evaluate the effect peptides on neurite outgrowth, GDNF and the peptides, G1, G2, G3, A1, A2, A3, N1, N2 and N3 were diluted to the appropriate concentrations and added to the neurons approximately 10 minutes after seeding. Medium alone was added to controls, and cells were incubated for 24 hours.
Neurite outgrowth experiments were terminated after the stated time by fixating the cells. To visualize neurons and their neurites, immunostaining of GAP-43 was performed. This staining is specific for neurons. Transfected cells and their neurites should be visible without immunostaining due to the fluorescence emitted by GFP. […] GFP is a cytoplasmic protein, and since thin neurites only contain a small volume of cytoplasm, GFP is only found in small amounts in most neurites. Therefore, a double-staining protocol, where cells were immunostained against GFP and GAP-43, was adopted. This protocol allowed the identification of transfected cells on the basis of GFP-staining in combination with visualization of neurites based on GAP-43-staining. […]

[2] = tested on: hippocampal neurons; test: Neurite outgrowth assay, co-cultures of hippocampal neurons on control fibroblasts or NCAM-expressing fibroblasts; settings: 24 hours
Description: as §1, §2, §3
(§5) For cocultures, L-cells were seeded in 8-well LabTek® Permanox Chamber slides at a density of 100.000 cells/well, except for transfection experiments where cells were seeded in 4-well LabTek® Permanox Chamber slides at a density of 200.000 cells/well. L-cells were grown for 24 hours in DMEM supplemented with 10% (v/v) FCS, 1% (v/v) glutamax, 100 U/ml penicillin, 100 μg/ml streptomycin, 2.5 μg/ml fungizone, and 567 μg/ml neomycin (G418), followed by washing twice in neurobasal medium with supplements before primary hippocampal neurons were seeded at a density of 7.000 cells/well in 8-well slides or 20.000 cells/well in 4-well slides.
as §4
Neurite outgrowth experiments were terminated after the stated time by fixating the cells. To visualize neurons and their neurites, immunostaining of GAP-43 was performed. This staining is specific for neurons. Transfected cells and their neurites should be visible without immunostaining due to the fluorescence emitted by GFP. […] GFP is a cytoplasmic protein, and since thin neurites only contain a small volume of cytoplasm, GFP is only found in small amounts in most neurites. Therefore, a double-staining protocol, where cells were immunostained against GFP and GAP-43, was adopted. This protocol allowed the identification of transfected cells on the basis of GFP-staining in combination with visualization of neurites based on GAP-43-staining.
Without prior removal of the medium 300 μl/well (8-well slides) or 500 μl/well (4-well slides) of a PBS solution containing 0.4 mM CaCl2, 0.05 M sucrose and 8% (v/v) formaldehyde was added to the cultures for 20 minutes. Cells were then washed 10 minutes in PBS followed by washing in PBS with 1% (w/v) BSA for 20 minutes, after which cells were incubated with primary antibodies overnight at 4° C.
Rabbit anti-rat GAP-43 antibodies were diluted 1:1000 for staining of untransfected cells and 1:2000 for staining of transfected cells. Mouse anti-GFP antibodies were diluted 1:1000. Antibodies were diluted in a PBS solution containing 7% (v/v) FCS to block unspecific binding, 50 mM glycine to block formaldehyde used for fixation, 0.2% (v/v) saponin to permeabilize cells, and 0.02% (v/v) NaN3 to preserve antibodies for later use.
The next day cells were washed 10 minutes in PBS followed by washing in PBS with 1% (w/v) BSA for 20 minutes. Cells were then incubated with secondary antibodies diluted in PBS with 1% (w/v) BSA for one hour at room temperature. Goat anti-rabbit IgG antibodies conjugated to Alexa 488 were diluted 1:1000 for untransfected cells and 1:2000 for transfected cells. Goat anti-mouse IgG antibodies conjugated to Alexa 546 were diluted 1:1000. Finally cells were washed 3×7 minutes in PBS and mounted with fluorescent mounting medium. […]

[3] = tested on: hippocampal neurons; test: Neurite outgrowth of hippocampal neurons transfected with dominant negative FGFR; settings: 10 ng/ml GDNF or 3 μg/ml GDNFp1, 18 hours, dnFGFR vs empty vector
Description: as §5
Additionally, neurons were transiently transfected with a dominant negative version of the FGFR (dnFGFR), As an alternative to the use of a pharmacological FGFR inhibitor, The dnFGFR plasmid encodes an FGFR that lacks the kinase domain. This mutant receptor inhibits the function of wild type FGFR by engaging in dimers that lack kinase activity. Transfection with an empty vector served as control. Transfection was also done with wtFGFR in order to assess the effect of overexpressing the FGFR.
Transfections were performed with a Nucleofector™ device and a Rat Neuron Nucleofector™ kit (Amaxa Inc., Gaithersburg, Md., USA). This transfection method is based on electroporation in combination with a Nucleofector™ solution containing lipophilic agents. These agents form liposomes containing the plasmid DNA, which then enter the cells during electroporation. The method allows transfection of undividing cells such as neurons. 3 μg of the plasmid of interest was mixed with the Nucleofector™ solution and primary hippocampal neurons were resuspended in the mixture, electroporated in the Nucleofector™ device, and transferred to neurobasal medium with supplements and 5% (v/v) FCS. Cells were then incubated for 2 hours after which they were resuspended in medium without serum, counted, seeded and incubated for 6 hours before GDNF or GDNFp1 was added. Medium alone was added to control and cells were incubated for 18 hours.
All transient transfections in this study included co-transfection with a plasmid encoding EGFP, which allows the identification of transfected cells. To ensure that all EGFP-expressing cells also are transfected with the plasmid of interest, a ratio of […] between the EGFP-encoding plasmid and the plasmid of interest was used (i.e. 0.5 μg EGFP-encoding plasmid was used for each transfection).
Neurite outgrowth experiments were terminated after the stated time by fixating the cells. To visualize neurons and their neurites, immunostaining of GAP-43 was performed. This staining is specific for neurons. Transfected cells and their neurites should be visible without immunostaining due to the fluorescence emitted by GFP. […]

B1: GDNF: glial cell line-derived neurotrophic factor, full-length protein used as stimulus (protein)
chain: SPDKQMAVLPRRERNRQAAAANPENSRGKGRRGQRGKNRGCVLTAIHLNVTDLGLGYETKEELIFRYCSGSCDAAETTYDKILKNLSRNRRLVSDKVGQACCRPIAFDDDLSFLDDNLVYHILRKHSAKRCGCI
For B1, the “neurite outgrowth, overall effect of treatment (one-way ANOVA)” value [1] was “overall statistically significant effect”, the “neurite outgrowth, overall effect of treatment, neurons grown on NCAM-expressing fibroblasts” value ([2]; co-culture on NCAM-expressing fibroblasts, GDNF 1-100 ng/ml, peptides 0.1-81 μg/ml) was “overall significant effect” and the “neurite outgrowth, overall effect of treatment, neurons grown on control fibroblasts” value ([2]; co-culture on control fibroblasts, GDNF 1-100 ng/ml, peptides 0.1-81 μg/ml) was “overall significant effect”. The “difference between neurite outgrowth on control fibroblasts and on NCAM-expressing fibroblasts across concentrations (one-way ANOVA)” value ([2]; difference per concentration, expressed as percentage of control) was “mean differences are not all the same”, the “neurite outgrowth mediated by the substance after transfection with dominant negative FGFR, on NCAM-expressing fibroblasts” value ([3]; NCAM-expressing fibroblasts) was “decreases neurite outgrowth” and the “neurite outgrowth mediated by the substance after transfection with dominant negative FGFR, on control fibroblasts” value ([3]; control fibroblasts) was “decreases neurite outgrowth”.
